Measurements from US20250136662A1, “CD95 POLYPEPTIDES” (Deutsches Krebsforschungszentrum Stiftung des öffentlichen …, priority 2021, published 2025).

Key:
Format in all cases: cell-based
[1] = test system: membrane lipid composition of cells; test: Lipidomics profiling of cells overexpressing CD95 variants (membrane lipid composition, UMAP clustering); settings: overexpressed using lentiviral vectors two weeks prior to lipidomics profiling
Text: (§1) FIG. 5: Changes of lipid composition of membranes of cells in the presence of CD95 variants. A) Shown are average mol % concentrations of the indicated lipid classes; Abbreviations: WT: wildtype CD95; KO: CD95-knockout; sM: single mutant (R171E), dM: double mutant (R192E/K193E); tM: triple mutant (R171E/R192E/K193E); PC: phosphatidylcholines; PE: phosphatidylethanolamines, PS: phosphatidylserines, PI: phosphatidylinositoles, SM: sphingomyelins, CE: cholesteryl esters. “a”X relates to acyl-X, e.g. aPC is Acyl-phosphatidylcholines; “e”X relates to Ether-X or X containing one odd-chain fatty acyl species. B) Clustering of cells based on lipid profile changes, UMAP representation. C) average cell size as cell area of cells expressing variants of CD95.
(§2) Indicated variants were overexpressed using lentiviral vectors two weeks prior to lipidomics profiling. […] Also, average cell size was decreased in cells expressing the triple mutant CD95, very similar to CD95 KO cells.

cell cycle = test: Cell cycle assessment of cells overexpressing CD95 variants; settings: overexpressed using lentiviral vectors two weeks prior to cell cycle assessment
Text: FIG. 6: Effect of CD95 variants on cell cycle. Shown is the percentage of cells in G2, S, or G1 phase, respectively, in cell overexpressing effector polypeptides. […] Abbreviations as in FIG. 5.
Indicated variants were overexpressed using lentiviral vectors two weeks prior to cell cycle assessment.

transferrin uptake = test: Transferrin uptake assay (endocytotic activity), flow cytometry; settings: lentiviral overexpression two weeks prior, uptake after 10, 20 and 30 min
Protocol: FIG. 8: Effect of CD95 variants on endocytotic activity of cells. Shown is the relative transferrin uptake of treated cells over time, i.e. after 10, 20, and 30 min. Abbreviations as in FIG. 5.
Indicated variants were overexpressed using lentiviral vectors two weeks prior to assessment of the endocytotic activity by a transferrin uptake assay. Transferrin uptake was assessed after the indicated time points via flow cytometry.

EGFR phosphorylation = test: Western blot, fraction of phosphorylated EGFR in cells overexpressing CD95 variants (Example 8); settings: lentiviral overexpression two weeks prior, untreated or 20 ng/ml CD95-ligand or 100 ng/ml EGF-L for 10 minutes
Protocol: (§3) FIG. 7: Effect of CD95 variants on cell signaling; shown is relative content in pAkt and pEGFR in cells transfected to overexpress effector polypeptides as indicated. Abbreviations as in FIG. 5.
(§4) Indicated variants were overexpressed using lentiviral vectors two weeks prior to treatment. Cells were left untreated (co) or exposed to 20 ng/ml of CD95-ligand or 100 ng/ml of EGF-L for 10 minutes and the fraction phosphorylation among total Akt and EGFR measured by Western Blot.

Caspase 8 cleavage = test: Caspase-8 cleavage in protein lysates of T98G cells (apoptosis); settings: upon EGFR stimulation
Protocol: FIG. 11: Impact of CD95 mutants on apoptosis (caspase-8 cleavage). Protein lysates were analysed for the level of cleaved and total caspase-8. […] Bar show, in each case from left to right, relative expression of total caspase, p44, p43, and p18.
(§5) T98G cells were serum starved, control (Co) cells were left untreated otherwise stimulated with 100 ng/ml of EGF-L for 10 mins. Protein samples were analysed by western blot for pAKT (ser 473), pEGFR and pERK and the total amount of protein (pan antibody). Relative expression of the protein was calculated where phospho-proteins were normalized to their total proteins. […] TMD is CD95 with the indicated mutation(s). Protein lysates were also analysed for the level of cleaved and total caspase (FIG. 11).

AKT activation = test: Western blot pAKT (ser 473) relative to total Akt in T98G cells (Example 11); settings: T98G cells serum starved, untreated or 100 ng/ml EGF-L for 10 mins
Protocol: (§6) FIG. 10: Impact of CD95 mutants on activation of Akt and EGFR. […] Abbreviations as in FIG. 5.
as §5

cell size = test: Average cell size as cell area of cells expressing CD95 variants; settings: lentiviral overexpression, very similar to CD95 KO cells
Text: as §1, §2

EGFR activation = test: Western blot pEGFR relative to total EGFR in T98G cells (Example 11); settings: T98G cells serum starved, untreated or 100 ng/ml EGF-L for 10 mins
Protocol: as §6, §5

[2] = test system: Akt phosphorylation (Ser 473); test: Western blot, fraction of phosphorylated Akt in cells overexpressing CD95 variants (Example 8); settings: lentiviral overexpression two weeks prior, untreated or 20 ng/ml CD95-ligand or 100 ng/ml EGF-L for 10 minutes
Protocol: as §3, §4

| Molecule | changes in membrane lipid composition [1] | clustering of cells based on lipid profile changes (UMAP) [1] | effect on cell cycle (cells in G2, S or G1 phase) (cell cycle) | effect on cell cycle (cells in G2, S or G1 phase) (cell cycle; listed as double mutation variant) | transferrin uptake (transferrin uptake) | EGFR phosphorylation, fraction among total EGFR (EGFR phosphorylation) | Caspase 8 cleavage (Caspase 8 cleavage) | level of AKT activation (pAKT ser 473 normalized to total) (AKT activation) | average cell size (cell size) | EGFR activation (pEGFR normalized to total) (EGFR activation) | effect on cell cycle (cells in G2, S or G1 phase) (cell cycle; listed as triple mutation variant) | Akt phosphorylation (Ser 473), fraction among total Akt [2] |
| --- | --- | --- | --- | --- | --- | --- | --- | --- | --- | --- | --- | --- |
| double mutant: CD95 variant with R192E/K193E exchanges (cf. SEQ ID NO:31), expressed from lentiviral or AAV vector (protein, R192E/K193E double mutein (dM)) MLGIWTLLPLVLTSVARLSSKSVNAQVTDINSKGLELRKTVTTVETQNLEGLHHDGQFCHKPCPPGERKARDCTVNGDEPDCVPCQEGKEYTDKAHFSSKCRRCRLCDEGHGLEVEINCTRTQNTKCRCKPNFFCNSTVCEHCDPCTKCEHGIIKECTLTSNTKCKEEGSQSNLGWLCLLLLPIPLIVWVKEEEVQKTCRKHRKENQGSHESPTLNPETVAINLSDVDLSKYITTIAGVMTLSQVKGFVRKNGVNEAKIDEIKNDNVQDTAEQVQLLRNWHQLHGKKEAYDTLIKDLKKANLCTLAEKIQTIILKDITSDSENSNFRNEIQSLV | distinct changes in membrane lipid composition | clustered similarly | G1 arrest | strong G1 arrest |  |  |  |  |  |  |  |  |
| single mutant: CD95 variant with R171E exchange (cf. SEQ ID NO:30), expressed from lentiviral or AAV vector (protein, R171E single mutein (sM)) MLGIWTLLPLVLTSVARLSSKSVNAQVTDINSKGLELRKTVTTVETQNLEGLHHDGQFCHKPCPPGERKARDCTVNGDEPDCVPCQEGKEYTDKAHFSSKCRRCRLCDEGHGLEVEINCTRTQNTKCRCKPNFFCNSTVCEHCDPCTKCEHGIIKECTLTSNTKCKEEGSESNLGWLCLLLLPIPLIVWVKRKEVQKTCRKHRKENQGSHESPTLNPETVAINLSDVDLSKYITTIAGVMTLSQVKGFVRKNGVNEAKIDEIKNDNVQDTAEQVQLLRNWHQLHGKKEAYDTLIKDLKKANLCTLAEKIQTIILKDITSDSENSNFRNEIQSLV |  | clustered similarly |  |  | significantly reduced transferrin uptake |  |  |  |  |  |  |  |
| triple mutant: CD95 variant with R171E/R192E/K193E exchanges (cf. SEQ ID NO:32), expressed from lentiviral or AAV vector (protein, R171E/R192E/K193E triple mutein (tM)) MLGIWTLLPLVLTSVARLSSKSVNAQVTDINSKGLELRKTVTTVETQNLEGLHHDGQFCHKPCPPGERKARDCTVNGDEPDCVPCQEGKEYTDKAHFSSKCRRCRLCDEGHGLEVEINCTRTQNTKCRCKPNFFCNSTVCEHCDPCTKCEHGIIKECTLTSNTKCKEEGSESNLGWLCLLLLPIPLIVWVKEEEVQKTCRKHRKENQGSHESPTLNPETVAINLSDVDLSKYITTIAGVMTLSQVKGFVRKNGVNEAKIDEIKNDNVQDTAEQVQLLRNWHQLHGKKEAYDTLIKDLKKANLCTLAEKIQTIILKDITSDSENSNFRNEIQSLV | distinct changes in membrane lipid composition | very similar clustering to the KO cells | G1 arrest |  | significantly reduced transferrin uptake | increased EGFR phosphorylation | noticeable Caspase 8 cleavage | decrease in the level of AKT activation | decreased | increase in the EGFR activation | strong G1 arrest | reduced Akt phosphorylation |
